Measurements taken from IntAct's records for PubMed 25910212.

B1: EF-hand domain-containing protein 1 (Homo sapiens), Q5JVL4 (parent)
chain: MVSNPVHGLPFLPGTSFKDSTKTAFHRSQTLSYRNGYAIVRRPTVGIGGDRLQFNQLSQAELDELASKAPVLTYGQPKQAPPADFIPAHVAFDKKVLKFDAYFQEDVPMSTEEQYRIRQVNIYYYLEDDSMSVIEPVVENSGILQGKLIKRQRLAKNDRGDHYHWKDLNRGINITIYGKTFRVVDCDQFTQVFLESQGIELNPPEKMALDPYTELRKQPLRKYVTPSDFDQLKQFLTFDKQVLRFYAIWDDTDSMYGECRTYIIHYYLMDDTVEIREVHERNDGRDPFPLLMNRQRVPKVLVENAKNFPQCVLEISDQEVLEWYTAKDFIVGKSLTILGRTFFIYDCDPFTRRYYKEKFGITDLPRIDVSKREPPPVKQELPPYNGFGLVEDSAQNCFALIPKAPKKDVIKMLVNDNKVLRYLAVLESPIPEDKDRRFVFSYFLATDMISIFEPPVRNSGIIGGKYLGRTKVVKPYSTVDNPVYYGPSDFFIGAVIEVFGHRFIILDTDEYVLKYMESNAAQYSPEALASIQNHVRKREAPAPEAESKQTEKDPGVQELEALIDTIQKQLKDHSCKDNIREAFQIYDKEASGYVDRDMFFKICESLNVPVDDSLVKELIRMCSHGEGKINYYNFVRAFSN
partner: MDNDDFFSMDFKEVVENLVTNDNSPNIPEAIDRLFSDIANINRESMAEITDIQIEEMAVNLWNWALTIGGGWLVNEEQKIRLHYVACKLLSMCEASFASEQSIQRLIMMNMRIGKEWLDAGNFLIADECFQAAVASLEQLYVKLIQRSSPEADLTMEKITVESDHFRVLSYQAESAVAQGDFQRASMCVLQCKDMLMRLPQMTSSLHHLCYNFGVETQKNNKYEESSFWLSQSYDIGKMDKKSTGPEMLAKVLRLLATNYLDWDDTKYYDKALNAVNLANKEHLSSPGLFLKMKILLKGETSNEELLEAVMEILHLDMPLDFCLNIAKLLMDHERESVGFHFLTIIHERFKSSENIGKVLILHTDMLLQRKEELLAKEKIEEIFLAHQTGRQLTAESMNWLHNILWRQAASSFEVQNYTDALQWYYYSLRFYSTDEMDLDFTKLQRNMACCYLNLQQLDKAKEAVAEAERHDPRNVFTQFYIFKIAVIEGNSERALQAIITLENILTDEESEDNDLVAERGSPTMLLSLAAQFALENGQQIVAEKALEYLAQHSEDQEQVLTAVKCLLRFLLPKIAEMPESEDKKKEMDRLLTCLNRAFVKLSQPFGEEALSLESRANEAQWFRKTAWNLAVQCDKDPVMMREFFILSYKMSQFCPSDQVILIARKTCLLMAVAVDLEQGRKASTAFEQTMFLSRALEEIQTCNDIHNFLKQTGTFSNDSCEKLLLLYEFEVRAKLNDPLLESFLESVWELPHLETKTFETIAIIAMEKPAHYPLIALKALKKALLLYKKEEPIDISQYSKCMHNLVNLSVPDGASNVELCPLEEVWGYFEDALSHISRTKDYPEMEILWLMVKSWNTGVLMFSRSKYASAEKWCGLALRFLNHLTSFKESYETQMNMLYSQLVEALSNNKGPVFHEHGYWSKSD
B2: Glycophorin-B (Homo sapiens), P06028 (parent)
chain: MYGKIIFVLLLSEIVSISALSTTEVAMHTSTSSSVTKSYISSQTNGETGQLVHRFTVPAPVVIILIILCVMAGIIGTILLISYSIRRLIKA
B3: U4/U6 small nuclear ribonucleoprotein Prp3 (Homo sapiens), O43395 (parent)
chain: MALSKRELDELKPWIEKTVKRVLGFSEPTVVTAALNCVGKGMDKKKAADHLKPFLDDSTLRFVDKLFEAVEEGRSSRHSKSSSDRSRKRELKEVFGDDSEISKESSGVKKRRIPRFEEVEEEPEVIPGPPSESPGMLTKLQIKQMMEAATRQIEERKKQLSFISPPTPQPKTPSSSQPERLPIGNTIQPSQAATFMNDAIEKARKAAELQARIQAQLALKPGLIGNANMVGLANLHAMGIAPPKVELKDQTKPTPLILDEQGRTVDATGKEIELTHRMPTLKANIRAVKREQFKQQLKEKPSEDMESNTFFDPRVSIAPSQRQRRTFKFHDKGKFEKIAQRLRTKAQLEKLQAEISQAARKTGIHTSTRLALIAPKKELKEGDIPEIEWWDSYIIPNGFDLTEENPKREDYFGITNLVEHPAQLNPPVDNDTPVTLGVYLTKKEQKKLRRQTRREAQKELQEKVRLGLMPPPEPKVRISNLMRVLGTEAVQDPTKVEAHVRAQMAKRQKAHEEANAARKLTAEQRKVKKIKKLKEDISQGVHISVYRVRNLSNPAKKFKIEANAGQLYLTGVVVLHKDVNVVVVEGGPKAQKKFKRLMLHRIKWDEQTSNTKGDDDEESDEEAVKKTNKCVLVWEGTAKDRSFGEMKFKQCPTENMAREHFKKHGAEHYWDLALSESVLESTD
partner: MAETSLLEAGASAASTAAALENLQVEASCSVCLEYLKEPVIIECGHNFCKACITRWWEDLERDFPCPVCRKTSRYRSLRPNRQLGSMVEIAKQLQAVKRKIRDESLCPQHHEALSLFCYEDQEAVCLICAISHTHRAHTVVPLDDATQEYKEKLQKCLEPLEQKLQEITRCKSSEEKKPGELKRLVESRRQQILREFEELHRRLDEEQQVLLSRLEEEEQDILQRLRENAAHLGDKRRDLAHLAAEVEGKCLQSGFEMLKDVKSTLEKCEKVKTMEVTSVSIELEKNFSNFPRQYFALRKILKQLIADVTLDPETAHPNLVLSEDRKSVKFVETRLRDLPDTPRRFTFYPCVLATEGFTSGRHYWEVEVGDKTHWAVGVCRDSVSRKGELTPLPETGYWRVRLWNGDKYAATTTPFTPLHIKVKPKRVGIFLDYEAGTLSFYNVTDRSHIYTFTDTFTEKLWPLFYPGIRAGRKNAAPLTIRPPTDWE
B4: Neuromedin-B (Homo sapiens), P08949-2 (parent)
chain: MARRAGGARMFGSLLLFALLAAGVAPLSWDLPEPRSRASKIRVHSRGNLWATGHFMGKKSLEPSSPSPLGTAPHTSLRDQRLQLSHDLLGILLLKKALGVSLSRPAPQIQEAAGTNTAEMTPIMGQTQQRGLDCAHPGKVLNGTLLMAPSGCKS
B5: EF-hand domain-containing protein 1 (Homo sapiens), Q5JVL4 (parent)
chain: B1 chain
partner: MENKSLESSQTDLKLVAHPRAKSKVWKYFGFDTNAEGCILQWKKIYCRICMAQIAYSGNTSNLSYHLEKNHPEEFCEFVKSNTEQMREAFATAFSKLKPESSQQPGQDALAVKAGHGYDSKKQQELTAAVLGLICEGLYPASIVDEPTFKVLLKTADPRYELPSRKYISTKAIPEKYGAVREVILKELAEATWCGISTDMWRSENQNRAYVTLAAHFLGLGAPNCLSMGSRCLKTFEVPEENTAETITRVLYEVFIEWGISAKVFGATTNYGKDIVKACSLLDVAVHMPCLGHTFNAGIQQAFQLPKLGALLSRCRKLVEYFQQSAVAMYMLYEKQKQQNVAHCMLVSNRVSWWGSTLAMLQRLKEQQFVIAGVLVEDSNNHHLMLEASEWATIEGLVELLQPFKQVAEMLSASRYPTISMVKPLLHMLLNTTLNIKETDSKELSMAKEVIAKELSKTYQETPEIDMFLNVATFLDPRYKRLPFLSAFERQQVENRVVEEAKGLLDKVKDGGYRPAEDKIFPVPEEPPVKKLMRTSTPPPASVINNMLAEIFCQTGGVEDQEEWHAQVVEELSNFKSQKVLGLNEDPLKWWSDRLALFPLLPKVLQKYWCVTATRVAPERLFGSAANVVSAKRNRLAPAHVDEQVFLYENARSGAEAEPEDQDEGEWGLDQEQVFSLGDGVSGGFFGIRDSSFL

Variants of: B1
Conditions: with TEX11, Q8IYF3-3

Variant | effect of a mutation on the interaction
R159W | with no effect
P77T | with no effect
A394S | disrupting interaction strength
T508R | with no effect

More lines, now with the values ahead:

effect of a mutation on the interaction | Variant
disrupting interaction strength | R221H
with no effect | M448T

Variants of: B2
Conditions: with ubql1_human UBQLN1, Q9UMX0

Variant | effect of a mutation on the interaction
T48M | with no effect

Variants of: B3
Conditions: with TRIM39, Q9HCM9-2

Variant | effect of a mutation on the interaction
P493S | disrupting interaction strength
T494M | disrupting interaction strength
A489D | disrupting interaction strength

Variants of: B4
Conditions: with birc2_human BIRC2, Q13490

Variant | effect of a mutation on the interaction
MARRAGGARMFGSLLLFALLAAGVAPLSWDLPEPRSRASKIRVHSRGNLWATGHFMGKKSLEPSSPSPLGTAPHTSLRDQRLQLSHDLLGILLLKKALGVSLSRPAPQIQEAAGTNTAEITPIMGQTQQRGLDCAHPGKVLNGTLLMAPSGCKS [M120I] | with no effect

Variants of: B5
Conditions: with zbed1_human ZBED1, O96006

Variant | effect of a mutation on the interaction
T508R | disrupting interaction strength
M448T | with no effect
R159W | with no effect
P77T | disrupting interaction strength
